In the Human Domainome abundance scans (Beltran et al. 2025):
± gives the uncertainty stated by the source.

B1: Intersectin-2, residues 1129 to 1183; numbered along this chain, Q9NZM3 (parent)
chain: VCQVIAMYDYAANNEDELSFSKGQLINVMNKDDPDWWQGEINGVTGLFPSNYVKM

Variants of: B1
Assay: abundance fitness (aPCA) (normalised: wild type 0, dead -1); higher = more abundant; growth selection in yeast, the domain comes from the species named
Conditions: Homo sapiens
VCQVIAMYDYAANNETELSFSKGQLINVMNKDDPDWWQGEINGVTGLFPSNYVKM [D16T] gave an abundance fitness of -0.126 ± 0.055.
VCQVIAMYDYAANNEHELSFSKGQLINVMNKDDPDWWQGEINGVTGLFPSNYVKM [D16H] showed an abundance fitness of -0.101 ± 0.057.
Variant VCQVIAMYDYAANNEIELSFSKGQLINVMNKDDPDWWQGEINGVTGLFPSNYVKM [D16I] has an abundance fitness of 0.109 ± 0.061.
With VCQVIAMYDYAANNESELSFSKGQLINVMNKDDPDWWQGEINGVTGLFPSNYVKM [D16S] the abundance fitness was -0.004 ± 0.033.
With VCQVIAMYDYAANNEGELSFSKGQLINVMNKDDPDWWQGEINGVTGLFPSNYVKM [D16G] the abundance fitness was -0.02 ± 0.033.
For VCQVIAMYDYAANNENELSFSKGQLINVMNKDDPDWWQGEINGVTGLFPSNYVKM [D16N], the abundance fitness was -0.068 ± 0.065.
VCQVIAMYDYAANNELELSFSKGQLINVMNKDDPDWWQGEINGVTGLFPSNYVKM [D16L] gave an abundance fitness of -0.034 ± 0.044.
Variant VCQVIAMYDYAVNNEDELSFSKGQLINVMNKDDPDWWQGEINGVTGLFPSNYVKM [A12V] has an abundance fitness of -0.334 ± 0.042.
For VCQVIAMYDYAYNNEDELSFSKGQLINVMNKDDPDWWQGEINGVTGLFPSNYVKM [A12Y], the abundance fitness was -0.455 ± 0.045.
Variant VCQVIAMYDYASNNEDELSFSKGQLINVMNKDDPDWWQGEINGVTGLFPSNYVKM [A12S] has an abundance fitness of -0.056 ± 0.035.
VCQVIAMYDYATNNEDELSFSKGQLINVMNKDDPDWWQGEINGVTGLFPSNYVKM [A12T] showed an abundance fitness of -0.038 ± 0.035.
VCQVIAMYDYAWNNEDELSFSKGQLINVMNKDDPDWWQGEINGVTGLFPSNYVKM [A12W] showed an abundance fitness of -0.685 ± 0.098.
Variant VCQVIAMYDYAQNNEDELSFSKGQLINVMNKDDPDWWQGEINGVTGLFPSNYVKM [A12Q] has an abundance fitness of -0.046 ± 0.051.
Work on VCQVIAMYDYAANNEDMLSFSKGQLINVMNKDDPDWWQGEINGVTGLFPSNYVKM [E17M] yielded an abundance fitness of -0.037 ± 0.044.
VCQVIAMYDYAANNEDLLSFSKGQLINVMNKDDPDWWQGEINGVTGLFPSNYVKM [E17L] gave an abundance fitness of -0.124 ± 0.03.
VCQVIAMYDYAANNEDQLSFSKGQLINVMNKDDPDWWQGEINGVTGLFPSNYVKM [E17Q] gave an abundance fitness of -0.042 ± 0.043.
VCQVIAMYDYAANNEDGLSFSKGQLINVMNKDDPDWWQGEINGVTGLFPSNYVKM [E17G] gave an abundance fitness of -0.039 ± 0.041.
For VCQVIAMYDYAANNEDCLSFSKGQLINVMNKDDPDWWQGEINGVTGLFPSNYVKM [E17C], the abundance fitness was -0.105 ± 0.042.
With VCQVIAMYDYAANNEDWLSFSKGQLINVMNKDDPDWWQGEINGVTGLFPSNYVKM [E17W] the abundance fitness was -0.322 ± 0.054.
Work on VCQVIAMYDYAANNEDALSFSKGQLINVMNKDDPDWWQGEINGVTGLFPSNYVKM [E17A] yielded an abundance fitness of -0.174 ± 0.04.
VCQVIAMYDYAANNEDYLSFSKGQLINVMNKDDPDWWQGEINGVTGLFPSNYVKM [E17Y] gave an abundance fitness of 0.064 ± 0.048.
Variant VCQVIAMYDYAANNEDHLSFSKGQLINVMNKDDPDWWQGEINGVTGLFPSNYVKM [E17H] has an abundance fitness of 0.048 ± 0.062.
In the case of VCQVIAMYDYAANNEDKLSFSKGQLINVMNKDDPDWWQGEINGVTGLFPSNYVKM [E17K], the abundance fitness is reported as -0.089 ± 0.042.
In the case of VCQVIAMYDYAANNEDILSFSKGQLINVMNKDDPDWWQGEINGVTGLFPSNYVKM [E17I], the abundance fitness is reported as -0.215 ± 0.072.
VCQVIAMYDYAANNEDDLSFSKGQLINVMNKDDPDWWQGEINGVTGLFPSNYVKM [E17D] gave an abundance fitness of -0.16 ± 0.043.
For VCQVIAMYDYAANNEDTLSFSKGQLINVMNKDDPDWWQGEINGVTGLFPSNYVKM [E17T], the abundance fitness was -0.158 ± 0.049.
Variant VCQVIAMYDYAANNEDRLSFSKGQLINVMNKDDPDWWQGEINGVTGLFPSNYVKM [E17R] has an abundance fitness of -0.016 ± 0.03.
VCQVIAMYDYAANNEDVLSFSKGQLINVMNKDDPDWWQGEINGVTGLFPSNYVKM [E17V] showed an abundance fitness of -0.145 ± 0.04.
Variant VCQVIAMYDYAANNEDPLSFSKGQLINVMNKDDPDWWQGEINGVTGLFPSNYVKM [E17P] has an abundance fitness of -0.756 ± 0.12.
With VCQVIAMYDYAANNEDFLSFSKGQLINVMNKDDPDWWQGEINGVTGLFPSNYVKM [E17F] the abundance fitness was -0.11 ± 0.04.
Variant VCQVIAMYDYAANNEDNLSFSKGQLINVMNKDDPDWWQGEINGVTGLFPSNYVKM [E17N] has an abundance fitness of -0.271 ± 0.097.
Variant VCQVIAMYDYAANTEDELSFSKGQLINVMNKDDPDWWQGEINGVTGLFPSNYVKM [N14T] has an abundance fitness of -0.001 ± 0.044.
With VCQVIAMYDYAANIEDELSFSKGQLINVMNKDDPDWWQGEINGVTGLFPSNYVKM [N14I] the abundance fitness was -0.092 ± 0.065.
VCQVIAMYDYAANYEDELSFSKGQLINVMNKDDPDWWQGEINGVTGLFPSNYVKM [N14Y] gave an abundance fitness of -0.048 ± 0.065.
VCQVIAMYDYAANSEDELSFSKGQLINVMNKDDPDWWQGEINGVTGLFPSNYVKM [N14S] gave an abundance fitness of 0.014 ± 0.046.
VCQVIAMYDYAANDEDELSFSKGQLINVMNKDDPDWWQGEINGVTGLFPSNYVKM [N14D] gave an abundance fitness of -0.089 ± 0.047.
VCQVIAMYDYAANGEDELSFSKGQLINVMNKDDPDWWQGEINGVTGLFPSNYVKM [N14G] gave an abundance fitness of -0.024 ± 0.045.
VCQVIAMYDYAANWEDELSFSKGQLINVMNKDDPDWWQGEINGVTGLFPSNYVKM [N14W] gave an abundance fitness of -0.203 ± 0.039.
In the case of VCQVIAMYDYAANREDELSFSKGQLINVMNKDDPDWWQGEINGVTGLFPSNYVKM [N14R], the abundance fitness is reported as 0.007 ± 0.029.
With VCQVIAMYDYAANVEDELSFSKGQLINVMNKDDPDWWQGEINGVTGLFPSNYVKM [N14V] the abundance fitness was -0.099 ± 0.043.
Work on VCQVIAMYDYAANPEDELSFSKGQLINVMNKDDPDWWQGEINGVTGLFPSNYVKM [N14P] yielded an abundance fitness of -0.535 ± 0.062.
VCQVIAMYDYAANEEDELSFSKGQLINVMNKDDPDWWQGEINGVTGLFPSNYVKM [N14E] showed an abundance fitness of -0.044 ± 0.036.
VCQVIAMYDYAANMEDELSFSKGQLINVMNKDDPDWWQGEINGVTGLFPSNYVKM [N14M] showed an abundance fitness of -0.016 ± 0.042.
In the case of VCQVIAMYDYAANFEDELSFSKGQLINVMNKDDPDWWQGEINGVTGLFPSNYVKM [N14F], the abundance fitness is reported as -0.08 ± 0.063.
With VCQVIAMYDYAANCEDELSFSKGQLINVMNKDDPDWWQGEINGVTGLFPSNYVKM [N14C] the abundance fitness was -0.027 ± 0.061.
For VCQVIAMYDYAANAEDELSFSKGQLINVMNKDDPDWWQGEINGVTGLFPSNYVKM [N14A], the abundance fitness was -0.038 ± 0.05.
In the case of VCQVIAMYDYAANQEDELSFSKGQLINVMNKDDPDWWQGEINGVTGLFPSNYVKM [N14Q], the abundance fitness is reported as -0.01 ± 0.056.
Variant VCQVIAMYDYAANHEDELSFSKGQLINVMNKDDPDWWQGEINGVTGLFPSNYVKM [N14H] has an abundance fitness of 0.02 ± 0.066.
